Laboratory results reported in publication PMC9776393, “Gold Nanoparticles-MWCNT Based Aptasensor for Early Diagnosis of Prostate Cancer”.

Biological target: prostate-specific antigen (PSA) (human (semen), UniProt P07288 25-261)
Assay: electrochemical aptasensor (DPV); MCH-blocked MWCNT/AuNP electrode; LoD 1 pg/mL, linear 1-100 ng/mL (abstract) or 0.001-100 ng/mL (Table 2); PBS pH 7.2, [Fe(CN)6]3-/4- redox probe, 5 min binding; aptamer heated to 95 C and cooled, immobilized at room temperature with MgCl2 and NaCl; binding temperature not stated
Settings: protein: commercial

Sequence of prostate-specific antigen (PSA) (P07288 25-261): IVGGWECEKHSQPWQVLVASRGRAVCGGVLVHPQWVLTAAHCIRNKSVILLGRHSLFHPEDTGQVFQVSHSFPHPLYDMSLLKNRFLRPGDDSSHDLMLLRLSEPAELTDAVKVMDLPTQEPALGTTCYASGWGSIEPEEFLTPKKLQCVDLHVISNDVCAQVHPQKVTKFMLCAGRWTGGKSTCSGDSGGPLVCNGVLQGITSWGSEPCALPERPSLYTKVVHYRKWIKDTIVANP

B1: PSA aptamer (ssDNA)
DNA: TTTTTAATTAAAGCTCGCCATCAAATAGCTTT
modifications: 5'-HS-(CH2)6 thiol
B1: binds.
